From patent US20060216303A1

Target: bacterial fusion protein 11-2 (a hybrid of b-galactosidase and human mammary mucin) (human) (UniProt P15941)
Assay: reciprocal of the competitor concentration giving 50% binding; competition radioimmunoassay on 11-2 fusion protein

B1: murine-human chimeric BrE-3 antibody (antibody, V domains shown)
VH: EVKLEESGGGLVQPGGSMKLSCAASGFTFSDAWMDWVRQSPEKGLEWVAEIRNKANNHATYYDESVKGRFTISRDDSKSRVYLQMISLRAEDTGLYYCTGEFANWGQGTLVTVSA
VL: DVVMTQTPLSLPVSLGDQASISCRSSQNLVHNNGNTYLYWFLQKSGQSPKLLIYRASIRFSGVPDRFSGSGSETDFTLKISRVEAEDLGVYFCFQGTHVPWTFGGGTKLEIK
  Ka: 2.68e+08 M⁻¹

B2: murine BrE-3 monoclonal antibody (antibody, V domains shown)
VH: B1 VH
VL: B1 VL
  Ka: 3.75e+08 M⁻¹
